This is an account of results in paper PMC2777755.

Assay [1] has as its target Ste5 minimal scaffold domain (Ste5-ms), fluorescein-labeled (S. cerevisiae) (UniProt P32917). Kind of assay: fluorescence polarisation. A general note: Fluorescence polarisation rises when a labelled molecule tumbles more slowly, as on binding a larger partner.
Assay [2] deals with Kss1 (Saccharomyces cerevisiae) (UniProt P14681). To be noted: cited from earlier work.
In assay [3] the target is Fus3 (Saccharomyces cerevisiae) (UniProt P16892). To be noted: cited from earlier work.
Chain of UniProt P16892 (P16892 whole entry): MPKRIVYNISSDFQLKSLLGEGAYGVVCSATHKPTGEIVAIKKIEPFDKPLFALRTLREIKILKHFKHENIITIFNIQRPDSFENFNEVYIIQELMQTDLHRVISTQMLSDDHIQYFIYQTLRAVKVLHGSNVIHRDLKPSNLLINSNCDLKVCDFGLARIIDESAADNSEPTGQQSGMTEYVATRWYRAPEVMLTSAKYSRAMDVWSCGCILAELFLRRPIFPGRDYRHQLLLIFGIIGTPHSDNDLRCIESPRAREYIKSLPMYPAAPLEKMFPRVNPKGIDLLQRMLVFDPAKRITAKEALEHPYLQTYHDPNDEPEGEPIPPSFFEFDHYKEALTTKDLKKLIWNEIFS
For assay [4] the target is unchanged. To be noted: cited from earlier work. This is another data set of the same source.

Where two headings read alike, the source gives them in different places.

Chain of UniProt P14681 (P14681 whole entry): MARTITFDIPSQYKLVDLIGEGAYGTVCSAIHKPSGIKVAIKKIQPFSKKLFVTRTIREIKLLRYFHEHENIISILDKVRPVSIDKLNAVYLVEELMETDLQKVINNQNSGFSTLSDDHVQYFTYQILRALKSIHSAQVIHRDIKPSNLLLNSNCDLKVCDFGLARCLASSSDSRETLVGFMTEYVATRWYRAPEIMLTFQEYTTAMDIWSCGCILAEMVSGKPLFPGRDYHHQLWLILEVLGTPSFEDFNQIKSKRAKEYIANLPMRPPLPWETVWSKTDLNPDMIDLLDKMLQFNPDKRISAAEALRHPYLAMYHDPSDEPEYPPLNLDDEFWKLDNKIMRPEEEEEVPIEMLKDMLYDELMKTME

One may read the Kd as the concentration at which binding is half-saturated. With “MAPKK Ste7 (from UniProt P06784 1-515) (enzyme)”, in assay [1], the Kd turned out to be 75 nM.

“Ste7 docking motif (from UniProt P06784)”: the Kd in assay [2] and in assay [3] was 100 nM each time.

As for Ste5 288-316 (from UniProt P32917), in assay [4], the dissociation constant Kd is 1000 nM.
